# Test results: paper PMC6430397, “The pharmacological properties of 3-arm or 4-arm DOTA constructs for conjugation to α-melanocyte-stimulating hormone analogues for melanoma imaging” (PLoS ONE, 2019)
# Key:
# [1] = Biological distribution in B16-F1 melanoma-bearing mice; assay type: in vivo, mouse; details: male, C57BL6, mouse, in vivo, iv, 37 kBq/mouse, total radioactivity, Biological distribution
# Protocol: C57BL6 male mice (5 weeks old) were transplanted with B16-F1 cells (5 × 10^5 cells/100 μL) into the thigh of the mice. […] The mice were housed and continuously monitored each day for 2 weeks in a 12-hour light/12-hour dark cycle with free access to food and water. The tumor size reached 8.7 ± 2.8 mm at 2 weeks after transplant of cells. Two mice with tumor sizes of 13 and 15 mm were excluded from our experiments. Mice with a tumor size <10 mm were fasted with no food overnight with water supplied ad libitum before experiments.
# For biological distribution studies, B16-F1-bearing mice were administered ^111In-labeled 3-arm or 4-arm DOTA-α-MSH via the tail vein (37 kBq/mouse). At 10, 30, 60, 120, and 180 min after injection, the mice were euthanized under isoflurane (n = 3 per time point), and the following tissues were collected: brain, lung, heart, stomach, liver, small intestine, large intestine, kidney, blood, muscle, and B16-F1 melanoma. Tissues were weighed, and radioactivity was quantified using an automated γ-ray counter to calculate the percent injected dose (%ID) or percent injected dose per gram of tissue (%ID/g).
# For SPECT imaging, ^111In-labeled 3-arm or 4-arm DOTA-α-MSH was injected into the tail vein of four B16-F1-bearing mice in total (37 MBq/mouse). For SPECT imaging, acquisition was started at 10 min after injection and continued every 10 min for 180 min. The data were reconstructed using the ordered subset expectation maximization method with 16 subsets and six iterations including no scatter and attenuation correction. The voxel size was set to 0.8×0.8×0.8 mm. Post-reconstruction smoothing filtering was applied using a 1.0-mm Gaussian filter. […] In these images, three to five regions of interest were placed over the kidney, muscle, and B16-F1 melanoma in which accumulation could be seen, and the time activity curve of each was obtained as the %ID/g.
# [2] = Partition coefficient, n-octanol / 0.1 M phosphate buffer; assay type: physicochemical; details: pH 7.4
# Protocol: The partition coefficients of ^111In-labeled 3-arm and 4-arm DOTA-α-MSH were measured using 2.0 mL n-octanol as the organic phase and 2.0 mL 0.l M phosphate buffer as the aqueous phase (pH 7.4 for plasma). N-octanol and the buffer were pre-mixed twice using a mechanical mixer for 1 min at room temperature. Then, 20 µL radioactive sample were added and mixed twice using a mechanical mixer for 1 min at room temperature. The radioactivity of 200 uL of each phase was measured after centrifugation. Calculation of log (n-octanol/0.l M phosphate buffer) was performed.
# MC1-R = molecular target: T1, MC1-R (Mus musculus, UniProt Q01727); details: endogenous ligand; cited from earlier work
# T1 construct: host or cells: B16-F1 mouse melanoma cells
# From the text: The melanocortin 1 receptor (MC1-R) is one of the most targeted melanoma antigens and belongs to the melanocortin family of G protein-coupled receptors, which consists of five receptor subtypes, MC1-R to MC5-R. MC1-R is expressed in nearly all primary and metastatic melanomas and 95% of uveal melanomas. MC1-R is an attractive receptor for molecular-targeted imaging and radionuclide therapy of melanoma. α-melanocyte-stimulating hormone (α-MSH), a tridecapeptide, is an endogenous ligand for the melanocortin family of receptors, with subnanomolar binding affinity to MC1-R [5].
# T1 sequence (Q01727 whole entry): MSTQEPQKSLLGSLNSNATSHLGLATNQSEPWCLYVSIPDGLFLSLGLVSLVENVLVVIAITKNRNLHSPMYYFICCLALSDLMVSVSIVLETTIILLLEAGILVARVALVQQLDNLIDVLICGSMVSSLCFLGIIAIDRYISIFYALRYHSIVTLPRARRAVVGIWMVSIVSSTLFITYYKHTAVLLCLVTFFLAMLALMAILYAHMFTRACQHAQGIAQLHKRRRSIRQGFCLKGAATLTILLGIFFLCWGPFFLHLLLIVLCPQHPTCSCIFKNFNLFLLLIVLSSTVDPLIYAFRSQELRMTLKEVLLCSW
molecule,measurement,setting,value
"CSCC[C@H](NC(=O)[C@H](CO)NC(=O)[C@H](Cc1ccc(O)cc1)NC(=O)[C@H](CO)NC(C)=O)C(=O)N[C@@H](CCC(=O)O)C(=O)N[C@@H](Cc1c[nH]cn1)C(=O)N[C@@H](Cc1ccccc1)C(=O)N[C@@H](CCCNC(=N)N)C(=O)N[C@@H](Cc1c[nH]c2ccccc12)C(=O)NCC(=O)N[C@@H](CCCCNC(=O)CN1CCN(CC(=O)O)CCN(CC(=O)O)CCN(CC(=O)O)CC1)C(=O)N1CCC[C@H]1C(=O)N[C@H](C(=O)O)C(C)C [^111In-labeled 3-arm DOTA-α-MSH, metal not drawn]",tissue uptake at 10 min,[1]; Blood,3.11 %ID/g
same,tissue uptake at 0.5 h,[1]; Blood,1.91 %ID/g
same,tissue uptake at 1 h,[1]; Blood,0.89 %ID/g
same,tissue uptake at 2 h,[1]; Blood,0.21 %ID/g
same,tissue uptake at 3 h,[1]; Blood,0.05 %ID/g
same,tissue uptake at 10 min,[1]; Brain,0.04 %ID/g
same,tissue uptake at 0.5 h,[1]; Brain,0.05 %ID/g
same,tissue uptake at 1 h,[1]; Brain,0.05 %ID/g
same,tissue uptake at 2 h,[1]; Brain,0.03 %ID/g
same,tissue uptake at 3 h,[1]; Brain,0.02 %ID/g
same,tissue uptake at 10 min,[1]; Heart,0.74 %ID/g
same,tissue uptake at 0.5 h,[1]; Heart,0.66 %ID/g
same,tissue uptake at 1 h,[1]; Heart,0.46 %ID/g
same,tissue uptake at 2 h,[1]; Heart,0.14 %ID/g
same,tissue uptake at 3 h,[1]; Heart,0.06 %ID/g
same,tissue uptake at 10 min,[1]; Kidney,23.6 %ID/g
same,tissue uptake at 0.5 h,[1]; Kidney,18.4 %ID/g
same,tissue uptake at 1 h,[1]; Kidney,11.9 %ID/g
same,tissue uptake at 2 h,[1]; Kidney,8.42 %ID/g
same,tissue uptake at 3 h,[1]; Kidney,7.07 %ID/g
same,tissue uptake dose at 10 min,[1]; Large intestine,0.03 %ID
same,tissue uptake dose at 0.5 h,[1]; Large intestine,0.08 %ID
same,tissue uptake dose at 1 h,[1]; Large intestine,0.09 %ID
same,tissue uptake dose at 2 h,[1]; Large intestine,0.05 %ID
same,tissue uptake dose at 3 h,[1]; Large intestine,0.04 %ID
same,tissue uptake at 10 min,[1]; Liver,2.3 %ID/g
same,tissue uptake at 0.5 h,[1]; Liver,1.15 %ID/g
same,tissue uptake at 1 h,[1]; Liver,1.12 %ID/g
same,tissue uptake at 2 h,[1]; Liver,1.23 %ID/g
same,tissue uptake at 3 h,[1]; Liver,0.72 %ID/g
same,tissue uptake at 10 min,[1]; Lung,0.51 %ID/g
same,tissue uptake at 0.5 h,[1]; Lung,0.66 %ID/g
same,tissue uptake at 1 h,[1]; Lung,0.31 %ID/g
same,tissue uptake at 2 h,[1]; Lung,0.27 %ID/g
same,tissue uptake at 3 h,[1]; Lung,0.1 %ID/g
same,tissue uptake at 10 min,[1]; Melanoma,1.71 %ID/g
same,tissue uptake at 0.5 h,[1]; Melanoma,1.81 %ID/g
same,tissue uptake at 1 h,[1]; Melanoma,2.49 %ID/g
same,tissue uptake at 2 h,[1]; Melanoma,3.36 %ID/g
same,tissue uptake at 3 h,[1]; Melanoma,3.51 %ID/g
same,tissue uptake at 10 min,[1]; Muscle,0.21 %ID/g
same,tissue uptake at 0.5 h,[1]; Muscle,0.2 %ID/g
same,tissue uptake at 1 h,[1]; Muscle,0.15 %ID/g
same,tissue uptake at 2 h,[1]; Muscle,0.09 %ID/g
same,tissue uptake at 3 h,[1]; Muscle,0.05 %ID/g
same,tissue uptake dose at 10 min,[1]; Small intestine,0.04 %ID
same,tissue uptake dose at 0.5 h,[1]; Small intestine,0.08 %ID
same,tissue uptake dose at 1 h,[1]; Small intestine,0.09 %ID
same,tissue uptake dose at 2 h,[1]; Small intestine,0.12 %ID
same,tissue uptake dose at 3 h,[1]; Small intestine,0.1 %ID
same,tissue uptake dose at 10 min,[1]; Stomach,0.06 %ID
same,tissue uptake dose at 0.5 h,[1]; Stomach,0.1 %ID
same,tissue uptake dose at 1 h,[1]; Stomach,0.12 %ID
same,tissue uptake dose at 2 h,[1]; Stomach,0.11 %ID
same,tissue uptake dose at 3 h,[1]; Stomach,0.12 %ID
same,logD,[2],-0.28 ± 0.03
α-melanocyte-stimulating hormone [α-MSH],binding affinity to MC1-R,MC1-R,subnanomolar
